Assay results reported in patent US20110093983A1, “ALGAL GLYCEROL-3 PHOSPHATE ACYLTRANSFERASE” (National Research Council of Canada, priority 2008, published 2011).

Tested on: yeast gat1 mutant
Assay: Lipidomic analysis of phospholipids from yeast gat1 transformed with TpGPAT or GAT1, fed EPA or DHA
Type: cell-based, Saccharomyces cerevisiae
Settings: tandem mass spectrometer lipidomics
Source text: FIG. 4 graphically depicts the results of the lipidomic analysis (fatty acid composition) of the lipids from yeast gat1 mutants transformed with either TpGPAT1 or GAT1. Yeast cells expressing TpGPAT or yeast GAT1 were fed with EPA (20:5) or DHA (22:6) upon induction of the genes. Total lipids from the yeast cells were extracted and subjected to lipidomic analysis using a tandem mass spectrometer. The results are presented as the molar ratio of EPA- or DHA-containing phospholipids (PC, PE, PS, PI) in the total phospholipids.
To further determine the role of TpGPAT in the incorporation of VLGPUFAs into glycerolipids, yeast gat1 strain transformed with TpGPAT or GAT1 under the control of the GAL1 promoter was grown in the presence of EPA (20:5) or DHA (22:6) upon induction of the genes. Phospholipids were extracted and subjected to lipidomic analysis using a tandem mass spectrometer (testing conducted by the Kansas Lipidomics Research Center). […] It was thus concluded that TpGPAT has a role in controlling PUFA accumulation in glycerolipid.

B1: GAT1: yeast (S. cerevisiae) glycerol-3-phosphate acyltransferase gene GAT1 expressed under GAL1 promoter as comparator (protein, listed as Saccharomyces cerevisiae)
chain: MSAPAADHNAAKPIPHVPQASRRYKNSYNGFVYNIHTWLYDVSVFLFNILFTIFFREIKVRGAYNVPEVGVPTILVCAPHANQFIDPALVMSQTRLLKTSAGKSRSRMPCFVTAESSFKKRFISFFGHAMGGIPVPRIQDNLKPVDENLEIYAPDLKNHPEIIKGRSKNPQTTPVNFTKRFSAKSLLGLPDYLSNAQIKEIPDDETIILSSPFRTSKSKVVELLTNGTNFKYAEKIDNTETFQSVFDHLHTKGCVGIFPEGGSHDRPSLLPIKAGVAIMALGAVAADPTMKVAVVPCGLHYFHRNKFRSRAVLEYGEPIVVDGKYGEMYKDSPRETVSKLLKKITNSLFSVTENAPDYDTLMVIQAARRLYQPVKVRLPLPAIVEINRRLLFGYSKFKDDPRIIHLKKLVYDYNRKLDSVGLKDHQVMQLKTTKLEALRCFVTLIVRLIKFSVFAILSLPGSILFTPIFIICRVYSEKKAKEGLKKSLVKIKGTDLLATWKLIVALILAPILYVTYSILLIILARKQHYCRIWVPSNNAFIQFVYFYALLVFTTYSSLKTGEIGVDLFKSLRPLFVSIVYPGKKIEEIQTTRKNLSLELTAVCNDLGPLVFPDYDKLATEIFSKRDGYDVSSDAESSISRMSVQSRSRSSSIHSIGSLASNALSRVNSRGSLTDIPIFSDAKQGQWKSEGETSEDEDEFDEKNPAIVQTARSSDLNKENSRNTNISSKIASLVRQKREHEKKE
- Molar percentage of DHA in phospholipids (yeast gat1 fed DHA (22:6)): 0.235%
- Molar percentage of EPA in phospholipids (yeast gat1 fed EPA (20:5)): 2.025%
